Measurements published in patent US10487121B2, “D-peptide inhibitors of HIV entry and methods of use” (priority 2016, dated 2019).
Like-named read-outs stand apart in the source and are kept apart here.

Assay: Rodent pharmacokinetics of PIE12-trimer and conjugates (Table 3 protocol)
Type: in vivo, Sprague Dawley rats
Settings: rats; for bioavailability: Sprague Dawley; for bioavailability / AUC(0-inf) / C0 / clearance / half-life / Vd / Cmax / Tmax: rat; for AUC(0-inf) / C0 / clearance / half-life / Vd / Cmax / Tmax: in vivo; for clearance: read-out: Cl (obs) (converted); for half-life: read-out: T1/2 (converted); for Vd: read-out: Vz (obs)
Procedure: At each timepoint, plasma was obtained using lithium heparin.
Samples were spiked with an internal standard then precipitated with two volumes of 98% acetonitrile/2% Formic acid. Supernatants were analyzed by LC/MS/MS using an Agilent HPLC system (Waters X-Bridge BEH C18 column) paired to an AB Sciex API 3000 triple-quad mass spectrometer using MRM methods. Lipid conjugates required lower source temperatures (300° C. vs 500° C.) for improved reproducibility.

Compound	bioavailability (SC, 1.0 mg/kg, plasma, median) [%]	AUC(0-inf) (IV, 1.0 mg/kg, plasma, median) [µM·h]	C0 (IV, 1.0 mg/kg, plasma, median) [nM]	clearance (IV, 1.0 mg/kg, plasma, median) [mL/min/kg]	half-life (IV, 1.0 mg/kg, plasma, median) [h]	Vd (IV, 1.0 mg/kg, plasma, median) [L/kg]	AUC(0-inf) (SC, 1.0 mg/kg, plasma, median) [µM·h]	Cmax (SC, 1.0 mg/kg, plasma, median) [nM]	Tmax (SC, 1.0 mg/kg, plasma, median) [h]	half-life (SC, 1.0 mg/kg, plasma, median) [h]	further results
CCCCCCCCCCCCCCCCSC1CC(=O)N(CCC(=O)NCCOCCOCCOCCOCCOCCOCCOCCOCCOCCOCCOCCOCCOCCOCCOCCOCCOCCOCCOCCOCCOCCOCCOCCOCCC(=O)NC(COCCC(=O)NCCOCCOCCOCCOCCC(=O)NCCCC[C@@H](NC(=O)CNC(=O)[C@@H](CC(C)C)NC(=O)[C@@H](CCC(=O)O)NC(=O)[C@H]2CSSC[C@@H](NC(=O)[C@H]3CCCN3C(=O)[C@@H](Cc3c[nH]cn3)NC(C)=O)C(=O)N[C@H](CC(=O)O)C(=O)N[C@H](Cc3ccc(O)cc3)C(=O)N3CCC[C@@H]3C(=O)N[C@H](CCC(=O)O)C(=O)N[C@H](Cc3c[nH]c4ccccc34)C(=O)N[C@H](CCC(N)=O)C(=O)N[C@H](Cc3c[nH]c4ccccc34)C(=O)N[C@H](CC(C)C)C(=O)N2)C(N)=O)(COCCC(=O)NCCOCCOCCOCCOCCC(=O)NCCCC[C@@H](NC(=O)CNC(=O)[C@@H](CC(C)C)NC(=O)[C@@H](CCC(=O)O)NC(=O)[C@H]2CSSC[C@@H](NC(=O)[C@H]3CCCN3C(=O)[C@@H](Cc3c[nH]cn3)NC(C)=O)C(=O)N[C@H](CC(=O)O)C(=O)N[C@H](Cc3ccc(O)cc3)C(=O)N3CCC[C@@H]3C(=O)N[C@H](CCC(=O)O)C(=O)N[C@H](Cc3c[nH]c4ccccc34)C(=O)N[C@H](CCC(N)=O)C(=O)N[C@H](Cc3c[nH]c4ccccc34)C(=O)N[C@H](CC(C)C)C(=O)N2)C(N)=O)COCCC(=O)NCCOCCOCCOCCOCCC(=O)NCCCC[C@@H](NC(=O)CNC(=O)[C@@H](CC(C)C)NC(=O)[C@@H](CCC(=O)O)NC(=O)[C@H]2CSSC[C@@H](NC(=O)[C@H]3CCCN3C(=O)[C@@H](Cc3c[nH]cn3)NC(C)=O)C(=O)N[C@H](CC(=O)O)C(=O)N[C@H](Cc3ccc(O)cc3)C(=O)N3CCC[C@@H]3C(=O)N[C@H](CCC(=O)O)C(=O)N[C@H](Cc3c[nH]c4ccccc34)C(=O)N[C@H](CCC(N)=O)C(=O)N[C@H](Cc3c[nH]c4ccccc34)C(=O)N[C@H](CC(C)C)C(=O)N2)C(N)=O)C1=O (stereo partly shown) [C16-PIE12-Trimer]	38	1.16	1880	1.67	0.93	0.14	0.442	192	1	1.18	–
CCCCCCCCCCCCCCCCCCSC1CC(=O)N(CCC(=O)NCCOCCOCCOCCOCCOCCOCCOCCOCCOCCOCCOCCOCCOCCOCCOCCOCCOCCOCCOCCOCCOCCOCCOCCOCCC(=O)NC(COCCC(=O)NCCOCCOCCOCCOCCC(=O)NCCCC[C@@H](NC(=O)CNC(=O)[C@@H](CC(C)C)NC(=O)[C@@H](CCC(=O)O)NC(=O)[C@H]2CSSC[C@@H](NC(=O)[C@H]3CCCN3C(=O)[C@@H](Cc3c[nH]cn3)NC(C)=O)C(=O)N[C@H](CC(=O)O)C(=O)N[C@H](Cc3ccc(O)cc3)C(=O)N3CCC[C@@H]3C(=O)N[C@H](CCC(=O)O)C(=O)N[C@H](Cc3c[nH]c4ccccc34)C(=O)N[C@H](CCC(N)=O)C(=O)N[C@H](Cc3c[nH]c4ccccc34)C(=O)N[C@H](CC(C)C)C(=O)N2)C(N)=O)(COCCC(=O)NCCOCCOCCOCCOCCC(=O)NCCCC[C@@H](NC(=O)CNC(=O)[C@@H](CC(C)C)NC(=O)[C@@H](CCC(=O)O)NC(=O)[C@H]2CSSC[C@@H](NC(=O)[C@H]3CCCN3C(=O)[C@@H](Cc3c[nH]cn3)NC(C)=O)C(=O)N[C@H](CC(=O)O)C(=O)N[C@H](Cc3ccc(O)cc3)C(=O)N3CCC[C@@H]3C(=O)N[C@H](CCC(=O)O)C(=O)N[C@H](Cc3c[nH]c4ccccc34)C(=O)N[C@H](CCC(N)=O)C(=O)N[C@H](Cc3c[nH]c4ccccc34)C(=O)N[C@H](CC(C)C)C(=O)N2)C(N)=O)COCCC(=O)NCCOCCOCCOCCOCCC(=O)NCCCC[C@@H](NC(=O)CNC(=O)[C@@H](CC(C)C)NC(=O)[C@@H](CCC(=O)O)NC(=O)[C@H]2CSSC[C@@H](NC(=O)[C@H]3CCCN3C(=O)[C@@H](Cc3c[nH]cn3)NC(C)=O)C(=O)N[C@H](CC(=O)O)C(=O)N[C@H](Cc3ccc(O)cc3)C(=O)N3CCC[C@@H]3C(=O)N[C@H](CCC(=O)O)C(=O)N[C@H](Cc3c[nH]c4ccccc34)C(=O)N[C@H](CCC(N)=O)C(=O)N[C@H](Cc3c[nH]c4ccccc34)C(=O)N[C@H](CC(C)C)C(=O)N2)C(N)=O)C1=O (stereo partly shown) [C18-PIE12-trimer]	93	0.766	900	2.5	1.05	0.23	0.713	196	2	1.39	–
CCCCCCCCCCCCCCCC(=O)N[C@H](CSC1CC(=O)N(CCC(=O)NCCOCCOCCOCCOCCOCCOCCOCCOCCOCCOCCOCCOCCOCCOCCOCCOCCOCCOCCOCCOCCOCCOCCOCCOCCC(=O)NC(COCCC(=O)NCCOCCOCCOCCOCCC(=O)NCCCC[C@@H](NC(=O)CNC(=O)[C@@H](CC(C)C)NC(=O)[C@@H](CCC(=O)O)NC(=O)[C@H]2CSSC[C@@H](NC(=O)[C@H]3CCCN3C(=O)[C@@H](Cc3c[nH]cn3)NC(C)=O)C(=O)N[C@H](CC(=O)O)C(=O)N[C@H](Cc3ccc(O)cc3)C(=O)N3CCC[C@@H]3C(=O)N[C@H](CCC(=O)O)C(=O)N[C@H](Cc3c[nH]c4ccccc34)C(=O)N[C@H](CCC(N)=O)C(=O)N[C@H](Cc3c[nH]c4ccccc34)C(=O)N[C@H](CC(C)C)C(=O)N2)C(N)=O)(COCCC(=O)NCCOCCOCCOCCOCCC(=O)NCCCC[C@@H](NC(=O)CNC(=O)[C@@H](CC(C)C)NC(=O)[C@@H](CCC(=O)O)NC(=O)[C@H]2CSSC[C@@H](NC(=O)[C@H]3CCCN3C(=O)[C@@H](Cc3c[nH]cn3)NC(C)=O)C(=O)N[C@H](CC(=O)O)C(=O)N[C@H](Cc3ccc(O)cc3)C(=O)N3CCC[C@@H]3C(=O)N[C@H](CCC(=O)O)C(=O)N[C@H](Cc3c[nH]c4ccccc34)C(=O)N[C@H](CCC(N)=O)C(=O)N[C@H](Cc3c[nH]c4ccccc34)C(=O)N[C@H](CC(C)C)C(=O)N2)C(N)=O)COCCC(=O)NCCOCCOCCOCCOCCC(=O)NCCCC[C@@H](NC(=O)CNC(=O)[C@@H](CC(C)C)NC(=O)[C@@H](CCC(=O)O)NC(=O)[C@H]2CSSC[C@@H](NC(=O)[C@H]3CCCN3C(=O)[C@@H](Cc3c[nH]cn3)NC(C)=O)C(=O)N[C@H](CC(=O)O)C(=O)N[C@H](Cc3ccc(O)cc3)C(=O)N3CCC[C@@H]3C(=O)N[C@H](CCC(=O)O)C(=O)N[C@H](Cc3c[nH]c4ccccc34)C(=O)N[C@H](CCC(N)=O)C(=O)N[C@H](Cc3c[nH]c4ccccc34)C(=O)N[C@H](CC(C)C)C(=O)N2)C(N)=O)C1=O)C(=O)O (stereo partly shown) [Palm-PIE12-trimer]	–	–	–	–	–	–	–	–	–	–	AUC(0-inf) (IV, 1.2 mg/kg, plasma, median): 2.24 µM·h; C0 (IV, 1.2 mg/kg, plasma, median): 2240 nM; clearance (IV, 1.2 mg/kg, plasma, median): 1.02 mL/min/kg; half-life (IV, 1.2 mg/kg, plasma, median): 1.83 h; Vd (IV, 1.2 mg/kg, plasma, median): 0.14 L/kg; AUC(0-inf) (SC, 1.2 mg/kg, plasma, median): 2.31 µM·h; Cmax (SC, 1.2 mg/kg, plasma, median): 585 nM; Tmax (SC, 1.2 mg/kg, plasma, median): 1 h; half-life (SC, 1.2 mg/kg, plasma, median): 2.23 h; increase of IV half-life vs PIE12-trimer (IV): > 3 fold; reduction of clearance vs PIE12-trimer (IV): ~14 fold; bioavailability upon SC dosing, in words (SC): fully bioavailable; F (SC, 1.2 mg/kg, plasma, median): 103%; extension of SC (apparent) half-life vs PIE12-trimer (SC, terminal phase elimination): ~3 fold
